Reference: patent US20250243261A1

Columns and labels:
[1] = molecular target: SARS-CoV-2 XBB Spike RBD (SARS-CoV-2 XBB variant); assay: BLI, IgG
[2] = molecular target: SARS-CoV-2 XBB.1.5 Spike RBD (SARS-CoV-2 XBB.1.5 variant); assay: BLI, IgG
[3] = molecular target: SARS-CoV-2 BQ.1.1 Spike RBD (SARS-CoV-2 BQ.1.1 variant); assay: BLI, IgG
[4] = molecular target: SARS-CoV-2 Omicron-variant receptor binding domain (RBD) (SARS-CoV-2 Omicron variant); assay: BLI, IgG
[5] = molecular target: SARS-CoV-2 Beta-variant Spike with two stabilizing proline substitutions (S-2P) (SARS-CoV-2 Beta variant); assay: BLI, IgG, single replicate
[6] = molecular target: SARS-CoV-2 Beta-variant Spike with two stabilizing proline substitutions (S-2P) (SARS-CoV-2 Beta variant); assay: BLI, Fab
[7] = molecular target: SARS-CoV-2 Omicron-variant receptor binding domain (RBD) (SARS-CoV-2 Omicron variant); assay: BLI, Fab

B1: SA58 WT IgG (antibody, V domains shown)
VH: QVQLAQSGSELRKPGASVKVSCDTSGHSFTSNAIHWVRQAPGQGLEWMGWINTDTGTPTYAQGFTGRFVFSLDTSARTAYLQISSLKADDTAVFYCARERDYSDYFFDYWGQGTLVTVSS
VL: EVVMTQSPASLSVSPGERATLSCRARASLGISTDLAWYQQRPGQAPRLLIYGASTRATGIPARFSGSGSGTEFTLTISSLQSEDSAVYYCQQYSNWPLTFGGGTKVEIK
Work on B1 yielded a Kd [1] of 7.4 µM, a Kd [2] of 2400 nM and a Kd [3] of less than 1 pM.

B2: REGN10987 WT IgG (antibody, V domains shown)
VH: QVQLVESGGGVVQPGRSLRLSCAASGFTFSNYAMYWVRQAPGKGLEWVAVISYDGSNKYYADSVKGRFTISRDNSKNTLYLQMNSLRTEDTAVYYCASGSDYGDYLLVYWGQGTLVTVSS
VL: QSALTQPASVSGSPGQSITISCTGTSSDVGGYNYVSWYQQHPGKAPKLMIYDVSKRPSGVSNRFSGSKSGNTASLTISGLQSEDEADYYCNSLTSISTWVFGGGTKLTVL
Work on B2 yielded a Kd [4] of 700 nM and a Kd [5] of 0.09 nM.

B3: REGN10987 WT Fab (Fab, V domains shown)
VH: QVQLVESGGGVVQPGRSLRLSCAASGFTFSNYAMYWVRQAPGKGLEWVAVISYDGSNKYYADSVKGRFTISRDNSKNTLYLQMNSLRTEDTAVYYCASGSDYGDYLLVYWGQGTLVTVSS
VL: QSALTQPASVSGSPGQSITISCTGTSSDVGGYNYVSWYQQHPGKAPKLMIYDVSKRPSGVSNRFSGSKSGNTASLTISGLQSEDEADYYCNSLTSISTWVFGGGTKLTVL
B3 showed a Kd [6] of 13 nM and a Kd [7] of 23 µM.
